Assay results: a protein production outcome set (Wang et al. 2014)

Experiment: label from the status in PepcDB records

Sequence | protein production
MSFSDHFSAVAASYAKARPRYPQRWFRYLARIVPDRQRVWDCATGNGQAAIALAEYFSEVIGSDASAAQVRQARSHPRVQYLVFPAEATPLAPASLDLITVAQAAHWFDLPQFYIEAQRLLRPGGVIALWGYGLGSLNPAIDHVFNHFYRDWLDPYWPPERQWVEQAYEGLSFPFEPLPTPTFSMQCDWTLFDLLAYLRTWSGVQQFQRQRGFDPVWAIAPELQRVWGDPQRYRRITWPLFAKVGRWQPDRVRLEHHHHHH | failed
MSDPSPIPARGRIASGGLVFLTVTTVAWGLSWPVTKYLISQWPPLPLRGLTGIAGSLALFGYAALRGDSLAVPRDQRLRLVISAFFNVTLWMAVMGLALLWLPAGETAVIAYTMPVWTALLAWPLLGERLTLRRVAALALAFGGIAALMGAAGFAASMTKLPGILLALTGALGFALGTIFLKRFPIALPGATSAAWQIGLGCIPVAVIGLAFEIPHVSVLTPLGWAGLVYLVVIQFCIAYVCWFAALQRLPASVAAIGTMATPVIGVVASAVALHEPLGVGQIAALVMTLTGVALATRS | failed
MDKLKVAELFAGVGGFRLGLENTKEKIFDVTWANQWEPSKKIQHAFDCYNSRFITGEHVNKDIALISDEEIANTKADMVVGGFPCQDYSVARSLSGELGIQGKKGVLFWQIIRFIQNTYPKYLLLENVDRLLKSPSSQRGRDFGVMLSTLNELGYNVEWRVINAADYGNAQRRRRVFIFGYKQDLEHHHHHH | not failed
SSSKGISNALKDLVEDFERELGRMLSPFELEDLQKTVSDDKTDPDLVRSALREAVFNGKTNWNYIQAILRNWRHEGI | failed
MDRNEVRHAWDSVSETYAERRDPTGSDAALLEDLLERLPEAPTVLDVGCGDGARTLANLPPRSVGLDFSRAGLDLAAETVPDSRLVQGDMGSLPVTTDSVDAITAYHAVFHVQRDQHPEVYREFARVLRPGGTVLMTLPSGQFETVRRGWMGGSMFFSAPGRRATLDQLADAGFTETETVTATDPLGSDSEFVFATLADALEHHHHHH | not failed
QLTVRRVAEHDLAALSEKAGGPVSIGTRDRLQVVYVDTIHDRGNNGAKPDIGSSRPLLHTAMGRALLYTFDAAERELLMPLLLEQEPQQGDAARAALEEAFAQIARTGFCTSYGSWRPELAGLAAPLRYRAGDLPFAINLTLPIDAVKDGRAEQEFGPYLARLAQSIDRRLGVDV | failed
MSDLVKIRDVSLSTPYVSVIGKITGIHKKEYESDGTTKSVYQGYIEDDTARIRISSFGKQLQDSDVVRIDNARVAQFNGYLSLSVGDSSRIESVNVNIPLEHHHHHH | not failed
MGLTEQKQKHMEQLSDKNGIISALAFDQRGALKRLMAKYQSEEPTVSQIEALKVLVAEELTPYASSMLLDPEYGLPATKVLDDNAGLLLAYEKTGYDTSSTKRLPDCLDIWSAKRIKEEGADAVKFLLYYDVDSSDEVNEEKEAYIERIGSECVAEDIPFFLEILSYDEKITDSSGIEYAKIKPRKVIEAMKVFSNPRFNIDVLKVEVPVNMDYVEGFAQGETAYNKATAAAYFREQDQATLLPYIFLSAGVPAQLFQETLVFAKEAGAKFNGVLCGRATWAGSVKEYVEKGEAGARQWLRTIGFQNIDELNKILQKTATSWKER | not failed
MRSISTGRMIDDSSDSVKGSVVWVPAKSIWITTMTVVAVVGGPLTFSWSAVIVFVLSTAITICLGHSVGMHRLLIHRSFSAPLWLEHLLVYLGTLVGMAGPFGMIYAHDIRDWAQRQRDCHDLYAHRRSFFVDALWQMHCAVALDEPPRFVVEERARHDRFYRLLEATWMAQQIPLALLLFSLGGLPWLVWGIAVRISVSLTGHWLVGHFAHRNGHQGWSVDDVAVQGYNLPRFGLVTFGESFHGNHHAFPESARLGIEPGQLDLGWHFIRLLAGLGLASAIKLPHTIVPRDGLRRVEVSGDTGEDHPVGQR | failed
MKEKISEKEYKALIRKIGKEHFDGEKEEYGDGTVGVWTYELRKYKLKPPVKVKYVTQEQFQEYKDSNNQRLIKIETTLAAQGEQIRIQVEQIKELQIEQKAQGETLKLILQTLQKMSDRLDKMEVKMDKMEEKMDKMEGKIDKIENRMDKMEVKMDKMEKRIDKLESKLEHHHHHH | failed
MVARDTTAPQVKIVNPVTGNVSGSNVPISVNASDDSGASGITYALYIDGVLKATGKGSTLGYNWNIRNVAAGAHTVQVVAKDAAGNSASSSVSVTVVKLEHHHHHH | failed
MKIQDYTKQMVDEKSFIDMAYTLLNDKGETMNLYDIIDEFRALGDYEYEEIENRVVQFYTDLNTDGRFLNVGENLWGLRDWYSVDDIEEKIAPTIQKFDILDADDEEDQNLKLLGEDEMDDDDDIPAQTDDQEELNDPEDEQVEEEINHSDIVIEEDEDELDEDEEVFEDEEDFND | not failed
